In paper PMC314469, “Protein Interaction Networks by Proteome Peptide Scanning” (PLoS Biology, 2004):

T1: Boi2 SH3 (BOI2_YEAST), P39969
T1 chain: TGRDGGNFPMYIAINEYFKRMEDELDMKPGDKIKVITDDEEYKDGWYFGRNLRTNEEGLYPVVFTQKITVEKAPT

T2: Rvs167 SH3 (RV167_YEAST), P39743
T2 chain: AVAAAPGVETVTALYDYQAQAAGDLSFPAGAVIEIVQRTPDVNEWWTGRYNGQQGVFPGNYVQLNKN

T3: Yhr016c SH3 (YSC84_YEAST), P32793
T3 chain: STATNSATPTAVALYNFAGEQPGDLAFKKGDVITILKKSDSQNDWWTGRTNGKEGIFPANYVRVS

T4: Boi1 SH3 (BOI1_YEAST), P38041
T4 chain: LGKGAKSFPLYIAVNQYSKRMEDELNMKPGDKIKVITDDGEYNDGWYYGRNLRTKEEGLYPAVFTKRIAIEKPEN

T5: Yfr024 SH3 (LSB3_YEAST), P43603
T5 chain: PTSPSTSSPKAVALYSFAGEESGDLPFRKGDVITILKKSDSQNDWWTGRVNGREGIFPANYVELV


Target: T1, Boi2 SH3 (BOI2_YEAST), P39969
Assay: SPOT array

| Binder | normalised SPOT signal, Boehringer light units (BLU); mean over the file's lines of this peptide |
| --- | --- |
| PSNPALPKKLLNVP [YGL197W 345-358] | 78.6 |
| QGPPNLPARDKSLV [YLL023C 9-22] | 23 |
| QILPTKPVKIIEQN [YLR082C 68-81] | 36.5 |
| QGQPLPPPRGQVIL [YBR108W 287-300] | 83.2 |
| QETPIIPKRIIHYS [YLR030W 11-24] | 246 |
| QGYPRQPQRPQRYH [YDR171W 27-40] | 377 |
| QGLPASPSRAALRY [YBR038W 55-68] | 57.8 |
| QEKPLTPLKYTKLI [YHL025W 160-173] | 28.6 |
| QDSPDMPEKESVYV [YER179W 310-323] | 42.6 |
| PVYPSLPERSKVIL [YGR099W 44-57] | 34 |
| PTAPNSPIKLGRRK [YIL112W 218-231] | 68.2 |
| QAHPPKPKRREGDI [YKR050W 402-415] | 38.2 |

The next lines start with the values.

| normalised SPOT signal, Boehringer light units (BLU); mean over the file's lines of this peptide | Binder |
| --- | --- |
| 10.5 | QAAPRNPNKDATIA [YOR363C 59-72] |
| 5.8 | PVGPKVPAKEPSPK [YEL043W 874-887] |
| 27.1 | PTTPGYPSKDSDTE [YJR126C 341-354] |
| 43 | PSAPKVPFKTLDSF [YNL315C 113-126] |
| 282 | QIFPKKPLRRTVMS [YDR182W 166-179] |
| 68.9 | QFVPIAPQRLNMIF [YMR247C 1015-1028] |
| 134 | PTPPSPPAKRIPRS [YPR171W 305-318] |
| 31.1 | PYPPSLPSRDLYEV [YLL028W 113-126] |
| 21.4 | PVDPTTPVKLGPGI [YOL142W 12-25] |
| 23.1 | QGEPLDPKRPSTAS [YGL027C 141-154] |

Target: T2, Rvs167 SH3 (RV167_YEAST), P39743
Assay: SPOT array

| Binder | normalised SPOT signal, Boehringer light units (BLU); mean over the file's lines of this peptide |
| --- | --- |
| PSNPALPKKLLNVP [YGL197W 345-358] | 27.9 |
| QGPPNLPARDKSLV [YLL023C 9-22] | 18500 |
| QILPTKPVKIIEQN [YLR082C 68-81] | 14.6 |
| QGQPLPPPRGQVIL [YBR108W 287-300] | 8250 |
| QETPIIPKRIIHYS [YLR030W 11-24] | 625 |
| QGYPRQPQRPQRYH [YDR171W 27-40] | 620 |
| QGLPASPSRAALRY [YBR038W 55-68] | 62.5 |
| QEKPLTPLKYTKLI [YHL025W 160-173] | 99.4 |
| QDSPDMPEKESVYV [YER179W 310-323] | 4.7 |
| PVYPSLPERSKVIL [YGR099W 44-57] | 4000 |
| PTAPNSPIKLGRRK [YIL112W 218-231] | 11.6 |
| QAHPPKPKRREGDI [YKR050W 402-415] | 41.1 |

The remaining lines, values ahead:

| normalised SPOT signal, Boehringer light units (BLU); mean over the file's lines of this peptide | Binder |
| --- | --- |
| 40.7 | QAAPRNPNKDATIA [YOR363C 59-72] |
| 30.7 | PVGPKVPAKEPSPK [YEL043W 874-887] |
| 45.8 | PTTPGYPSKDSDTE [YJR126C 341-354] |
| 37 | PSAPKVPFKTLDSF [YNL315C 113-126] |
| 737 | QIFPKKPLRRTVMS [YDR182W 166-179] |
| 90 | QFVPIAPQRLNMIF [YMR247C 1015-1028] |
| 59.3 | PTPPSPPAKRIPRS [YPR171W 305-318] |
| 944 | PYPPSLPSRDLYEV [YLL028W 113-126] |
| 19 | PVDPTTPVKLGPGI [YOL142W 12-25] |
| 45.6 | QGEPLDPKRPSTAS [YGL027C 141-154] |

Target: T3, Yhr016c SH3 (YSC84_YEAST), P32793
Assay: SPOT array

| Binder | normalised SPOT signal, Boehringer light units (BLU); mean over the file's lines of this peptide |
| --- | --- |
| PSNPALPKKLLNVP [YGL197W 345-358] | 87.4 |
| QGPPNLPARDKSLV [YLL023C 9-22] | 64000 |
| QILPTKPVKIIEQN [YLR082C 68-81] | 73.8 |
| QGQPLPPPRGQVIL [YBR108W 287-300] | 16000 |
| QETPIIPKRIIHYS [YLR030W 11-24] | 7820 |
| QGYPRQPQRPQRYH [YDR171W 27-40] | 8440 |
| QGLPASPSRAALRY [YBR038W 55-68] | 104 |
| QEKPLTPLKYTKLI [YHL025W 160-173] | 7.1 |
| QDSPDMPEKESVYV [YER179W 310-323] | 0 |
| PVYPSLPERSKVIL [YGR099W 44-57] | 21100 |
| PTAPNSPIKLGRRK [YIL112W 218-231] | 175 |
| QAHPPKPKRREGDI [YKR050W 402-415] | 740 |

Continued, values first:

| normalised SPOT signal, Boehringer light units (BLU); mean over the file's lines of this peptide | Binder |
| --- | --- |
| 46.6 | QAAPRNPNKDATIA [YOR363C 59-72] |
| 48.6 | PVGPKVPAKEPSPK [YEL043W 874-887] |
| 25 | PTTPGYPSKDSDTE [YJR126C 341-354] |
| 176 | PSAPKVPFKTLDSF [YNL315C 113-126] |
| 8570 | QIFPKKPLRRTVMS [YDR182W 166-179] |
| 601 | QFVPIAPQRLNMIF [YMR247C 1015-1028] |
| 0 | PTPPSPPAKRIPRS [YPR171W 305-318] |
| 16000 | PYPPSLPSRDLYEV [YLL028W 113-126] |
| 179 | PVDPTTPVKLGPGI [YOL142W 12-25] |
| 418 | QGEPLDPKRPSTAS [YGL027C 141-154] |

Target: T4, Boi1 SH3 (BOI1_YEAST), P38041
Assay: SPOT array

| Binder | normalised SPOT signal, Boehringer light units (BLU); mean over the file's lines of this peptide |
| --- | --- |
| PSNPALPKKLLNVP [YGL197W 345-358] | 28.7 |
| QGPPNLPARDKSLV [YLL023C 9-22] | 63.2 |
| QILPTKPVKIIEQN [YLR082C 68-81] | 30.5 |
| QGQPLPPPRGQVIL [YBR108W 287-300] | 231 |
| QETPIIPKRIIHYS [YLR030W 11-24] | 4800 |
| QGYPRQPQRPQRYH [YDR171W 27-40] | 7410 |
| QGLPASPSRAALRY [YBR038W 55-68] | 1720 |
| QEKPLTPLKYTKLI [YHL025W 160-173] | 78 |
| QDSPDMPEKESVYV [YER179W 310-323] | 51.6 |
| PVYPSLPERSKVIL [YGR099W 44-57] | 40.1 |
| PTAPNSPIKLGRRK [YIL112W 218-231] | 135 |
| QAHPPKPKRREGDI [YKR050W 402-415] | 133 |

Results, then the binder that gave them:

| normalised SPOT signal, Boehringer light units (BLU); mean over the file's lines of this peptide | Binder |
| --- | --- |
| 78.3 | QAAPRNPNKDATIA [YOR363C 59-72] |
| 88 | PVGPKVPAKEPSPK [YEL043W 874-887] |
| 40.3 | PTTPGYPSKDSDTE [YJR126C 341-354] |
| 75.4 | PSAPKVPFKTLDSF [YNL315C 113-126] |
| 231 | QIFPKKPLRRTVMS [YDR182W 166-179] |
| 427 | QFVPIAPQRLNMIF [YMR247C 1015-1028] |
| 347 | PTPPSPPAKRIPRS [YPR171W 305-318] |
| 36.2 | PYPPSLPSRDLYEV [YLL028W 113-126] |
| 40.5 | PVDPTTPVKLGPGI [YOL142W 12-25] |
| 51.9 | QGEPLDPKRPSTAS [YGL027C 141-154] |

Target: T5, Yfr024 SH3 (LSB3_YEAST), P43603
Assay: SPOT array

| Binder | normalised SPOT signal, Boehringer light units (BLU); mean over the file's lines of this peptide |
| --- | --- |
| PSNPALPKKLLNVP [YGL197W 345-358] | 1030 |
| QGPPNLPARDKSLV [YLL023C 9-22] | 36100 |
| QILPTKPVKIIEQN [YLR082C 68-81] | 183 |
| QGQPLPPPRGQVIL [YBR108W 287-300] | 22700 |
| QETPIIPKRIIHYS [YLR030W 11-24] | 15200 |
| QGYPRQPQRPQRYH [YDR171W 27-40] | 13200 |
| QGLPASPSRAALRY [YBR038W 55-68] | 522 |
| QEKPLTPLKYTKLI [YHL025W 160-173] | 929 |
| QDSPDMPEKESVYV [YER179W 310-323] | 26.9 |
| PVYPSLPERSKVIL [YGR099W 44-57] | 24100 |
| PTAPNSPIKLGRRK [YIL112W 218-231] | 547 |
| QAHPPKPKRREGDI [YKR050W 402-415] | 9260 |

Further lines, results first:

| normalised SPOT signal, Boehringer light units (BLU); mean over the file's lines of this peptide | Binder |
| --- | --- |
| 8.2 | QAAPRNPNKDATIA [YOR363C 59-72] |
| 381 | PVGPKVPAKEPSPK [YEL043W 874-887] |
| 139 | PTTPGYPSKDSDTE [YJR126C 341-354] |
| 284 | PSAPKVPFKTLDSF [YNL315C 113-126] |
| 35400 | QIFPKKPLRRTVMS [YDR182W 166-179] |
| 1580 | QFVPIAPQRLNMIF [YMR247C 1015-1028] |
| 8640 | PTPPSPPAKRIPRS [YPR171W 305-318] |
| 8330 | PYPPSLPSRDLYEV [YLL028W 113-126] |
| -0 | PVDPTTPVKLGPGI [YOL142W 12-25] |
| 440 | QGEPLDPKRPSTAS [YGL027C 141-154] |
